Measurements published in patent publication US20180030111A1.
Read-outs that look alike come from different tables or passages of the source.

Tests used:
[1] = molecular target: FcgRIIIa receptor (CD16a) on human NK cells (human) (UniProt P08637); assay: cell-based or functional assay
[2] = molecular target: C1q complement (rabbit serum as complement source) (rabbit); assay: cell-based or functional assay
[3] = molecular target: CD32b (FcgRIIb receptor) (human) (UniProt P31994); assay: ELISA, purified IgG on coated receptor, ratio against wild-type
[4] = molecular target: CD32aH (FcgRIIa receptor, H at position 131) (human) (UniProt P12318); assay: as above
[5] = molecular target: CD32aR (FcgRIIa receptor, R at position 131) (human) (UniProt P12318); assay: as above
[6] = molecular target: CD64 (UniProt P12314); assay: as above
[7] = molecular target: C1q complement (rabbit serum as complement source) (rabbit); assay: cell-based or functional assay; remark: listed apart in the source
[8] = molecular target: C1q complement (rabbit serum as complement source) (rabbit); assay: cell-based or functional assay; remark: listed apart in the source

Chain of CD32aH (FcgRIIa receptor, H at position 131) (human) (P12318 34-217): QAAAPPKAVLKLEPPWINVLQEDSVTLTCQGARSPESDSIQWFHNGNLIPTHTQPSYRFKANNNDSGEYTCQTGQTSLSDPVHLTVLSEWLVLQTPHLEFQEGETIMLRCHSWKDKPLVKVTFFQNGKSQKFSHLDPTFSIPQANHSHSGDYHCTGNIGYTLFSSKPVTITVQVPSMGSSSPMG
Chain of CD64 (P12314 16-288 limits assumed): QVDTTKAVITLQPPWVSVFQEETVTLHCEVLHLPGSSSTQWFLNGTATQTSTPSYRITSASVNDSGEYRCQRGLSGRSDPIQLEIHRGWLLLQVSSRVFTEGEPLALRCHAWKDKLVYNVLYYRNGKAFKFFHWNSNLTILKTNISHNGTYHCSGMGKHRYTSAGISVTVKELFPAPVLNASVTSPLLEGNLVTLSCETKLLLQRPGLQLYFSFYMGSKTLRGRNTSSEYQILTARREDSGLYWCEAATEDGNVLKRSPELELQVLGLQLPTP
Chain of FcgRIIIa receptor (CD16a) on human NK cells (human) (P08637 17-254): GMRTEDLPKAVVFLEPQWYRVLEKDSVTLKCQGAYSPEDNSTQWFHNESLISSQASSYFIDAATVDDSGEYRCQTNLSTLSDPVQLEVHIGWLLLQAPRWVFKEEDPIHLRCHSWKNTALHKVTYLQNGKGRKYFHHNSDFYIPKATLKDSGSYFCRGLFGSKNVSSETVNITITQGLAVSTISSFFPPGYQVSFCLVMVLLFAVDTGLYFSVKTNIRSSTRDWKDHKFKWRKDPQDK
Chain of CD32b (FcgRIIb receptor) (human) (P31994 46-217): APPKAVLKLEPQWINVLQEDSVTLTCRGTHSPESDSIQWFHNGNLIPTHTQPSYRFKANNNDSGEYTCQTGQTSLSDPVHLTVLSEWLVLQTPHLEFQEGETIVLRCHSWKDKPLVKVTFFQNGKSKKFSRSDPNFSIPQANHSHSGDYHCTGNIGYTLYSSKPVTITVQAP

Row | Substance | ADCC [1] | ADCC, EC50: Antibody concentration (ng/ml) giving 50% maximum lysis of an internal control [1] | ADCC, Ratio [WT]/[antibody] [1] | CDC [2] | ELISA ratio (purified antibodies) [3] | ELISA ratio (purified antibodies) [4] | ELISA ratio (purified antibodies) [5] | ELISA ratio (purified antibodies) [6] | CDC, Antibody concentration (ng/ml) giving 50% lysis of an internal control [7] | CDC, Ratio [WT]/[antibody] [7] | CDC, Antibody concentration (ng/ml) giving 50% lysis of an internal control [2] | CDC, Ratio [WT]/[antibody] [2] | ADCC, EC45: Antibody concentration (ng/ml) giving 45% maximum lysis of an internal control [1] | CDC, Antibody concentration (ng/ml) giving 50% lysis of an internal control [8] | CDC, Ratio [WT]/[antibody] [8]
1 | anti-CD20 IgG variant A3A-14 (S298N, A378V) (antibody) | 12.8 | 0.82 ng/mL | 12.8 | 0.7 | 0.9 | 1.1 | 0.8 | 1.6 | 341 ng/mL | 0.7 | – | – | – | – | –
2 | anti-CD20 IgG variant A3A-105D (G316D, K326E, A378V) (antibody) | 8.3 | 1.27 ng/mL | 8.28 | 6.1 | 2 | 1.4 | 2.6 | 1.5 | 38.5 ng/mL | 6.14 | – | – | – | – | –
3 | anti-CD20 IgG variant A3A-184 (K334N, P352S, V397M) (antibody) | 5.3 | – | – | 2.2 | 3.3 | 1.33 | 3.2 | 1.4 | – | – | 210 ng/mL | 1.25 | – | – | –
4 | anti-CD20 IgG variant A3A-184A (K334N, P352S, V397M, A378V) (antibody) | 30.9 | 0.34 ng/mL | 30.9 | 3.2 | 3.1 | 1.3 | 4.3 | 1.5 | 74.1 ng/mL | 3.2 | – | – | – | – | –
5 | anti-CD20 IgG variant DL4A-54 (P352L, Q418P) (antibody) | – | > 5000 ng/mL | < 0.002 | – | – | – | – | – | 165 ng/mL | 1.44 | – | – | – | – | –
6 | anti-CD20 IgG variant G3A-43 (A231V, A378V) (antibody) | 12 | – | – | 2.8 | 2.7 | 5.3 | 3.6 | 1.4 | – | – | 168 ng/mL | 1.55 | – | – | –
7 | anti-CD20 IgG variant G3A-45 (K246R, A378V) (antibody) | – | – | – | – | – | – | – | – | – | – | 195 ng/mL | 1.34 | – | – | –
8 | anti-CD20 IgG variant G3A-88 (K320E, T394P, G402D) (antibody) | 1.3 | 8.07 ng/mL | 1.3 | 0.9 | 3.9 | 2.94 | 3.7 | 2.4 | 274 ng/mL | 0.86 | – | – | – | – | –
9 | anti-CD20 IgG variant G3A-95 (I336T, A378V) (antibody) | 10.8 | 0.97 ng/mL | 10.8 | 1.3 | 1 | 0.7 | 0.9 | 1.3 | 177 ng/mL | 1.34 | – | – | – | – | –
10 | anti-CD20 IgG variant G3A-103 (K248E, A378V) (antibody) | 33.9 | 0.31 ng/mL | 33.9 | 7.1 | 1.2 | 0.5 | 0.9 | 1.2 | 33.3 ng/mL | 7.1 | – | – | – | – | –
11 | anti-CD20 IgG variant G3A-139 (T307N, V323I) (antibody) | – | 2.8 ng/mL | 3.75 | – | – | – | – | – | 85.7 ng/mL | 2.76 | – | – | – | – | –
12 | anti-CD20 IgG variant J3A-14 (K326T) (antibody) | – | 7.39 ng/mL | – | 3.7 | – | – | – | – | 64.1 ng/mL | – | – | – | – | – | –
13 | anti-CD20 IgG variant J3B-16 (S267G, A378T, V397M) (antibody) | – | – | – | – | – | – | – | – | – | – | 210 ng/mL | 1.25 | – | – | –
14 | anti-CD20 IgG variant J3B-23 (N286I, A378V, F423Y) (antibody) | 18.4 | 0.57 ng/mL | – | 2.4 | – | – | – | – | – | – | – | – | – | – | –
15 | anti-CD20 IgG variant J3B-118 (P396L, N421T) (antibody) | 9.7 | – | – | 12.2 | 1 | 1 | 1.1 | 1.6 | – | – | 38.7 ng/mL | 6.77 | – | – | –
16 | anti-CD20 IgG variant K3B-87 (V323I, F405L) (antibody) | – | 16.3 ng/mL | 0.64 | – | – | – | – | – | 107 ng/mL | 2.22 | – | – | – | – | –
17 | anti-CD20 IgG variant N3A-27 (K290E, A378V, K392R, S440G) (antibody) | – | – | 0.86 | – | – | – | – | – | – | – | – | – | 18.7 ng/mL | 179 ng/mL | 0.74
18 | anti-CD20 IgG variant N3A-32 (K326T, K334N, P352S, N421T) (antibody) | – | – | 0.55 | – | – | – | – | – | – | – | – | – | 2.9 ng/mL | 66 ng/mL | 2.02
19 | anti-CD20 IgG variant N3A-58 (V284L, K334R, A378V, K447N) (antibody) | – | – | 0.36 | – | – | – | – | – | – | – | – | – | 4.4 ng/mL | 36 ng/mL | 3.69
20 | anti-CD20 IgG variant O3A-44 (A378V, K439R) (antibody) | – | – | 0.62 | – | – | – | – | – | – | – | – | – | 2.6 ng/mL | 129 ng/mL | 1.03
21 | anti-CD20 IgG variant O3A-86 (K248E, K290E, N361H, P396L) (antibody) | – | – | 0.36 | – | – | – | – | – | – | – | – | – | 4.4 ng/mL | 44 ng/mL | 3.02
22 | anti-CD20 IgG variant P4B-89 (T307P, T366A, A378V) (antibody) | – | – | 0.44 | – | – | – | – | – | – | – | – | – | 3.6 ng/mL | 115 ng/mL | 1.16
23 | anti-CD20 IgG variant Q4B-68 (T307P, A378V, T394P) (antibody) | – | – | 0.94 | – | – | – | – | – | – | – | – | – | 1.7 ng/mL | 126 ng/mL | 1.06
24 | anti-CD20 IgG variant QL2A-16 (K248E, N421T) (antibody) | – | 4.36 ng/mL | 2.41 | – | – | – | – | – | 51.5 ng/mL | 4.59 | – | – | – | – | –
